# In publication PMC6753478 (Nucleic Acids Research, 2019):
# T1: FLAG-UPF1 (UniProt Q92900-2 1-1118)
# T1 sequence (looked up): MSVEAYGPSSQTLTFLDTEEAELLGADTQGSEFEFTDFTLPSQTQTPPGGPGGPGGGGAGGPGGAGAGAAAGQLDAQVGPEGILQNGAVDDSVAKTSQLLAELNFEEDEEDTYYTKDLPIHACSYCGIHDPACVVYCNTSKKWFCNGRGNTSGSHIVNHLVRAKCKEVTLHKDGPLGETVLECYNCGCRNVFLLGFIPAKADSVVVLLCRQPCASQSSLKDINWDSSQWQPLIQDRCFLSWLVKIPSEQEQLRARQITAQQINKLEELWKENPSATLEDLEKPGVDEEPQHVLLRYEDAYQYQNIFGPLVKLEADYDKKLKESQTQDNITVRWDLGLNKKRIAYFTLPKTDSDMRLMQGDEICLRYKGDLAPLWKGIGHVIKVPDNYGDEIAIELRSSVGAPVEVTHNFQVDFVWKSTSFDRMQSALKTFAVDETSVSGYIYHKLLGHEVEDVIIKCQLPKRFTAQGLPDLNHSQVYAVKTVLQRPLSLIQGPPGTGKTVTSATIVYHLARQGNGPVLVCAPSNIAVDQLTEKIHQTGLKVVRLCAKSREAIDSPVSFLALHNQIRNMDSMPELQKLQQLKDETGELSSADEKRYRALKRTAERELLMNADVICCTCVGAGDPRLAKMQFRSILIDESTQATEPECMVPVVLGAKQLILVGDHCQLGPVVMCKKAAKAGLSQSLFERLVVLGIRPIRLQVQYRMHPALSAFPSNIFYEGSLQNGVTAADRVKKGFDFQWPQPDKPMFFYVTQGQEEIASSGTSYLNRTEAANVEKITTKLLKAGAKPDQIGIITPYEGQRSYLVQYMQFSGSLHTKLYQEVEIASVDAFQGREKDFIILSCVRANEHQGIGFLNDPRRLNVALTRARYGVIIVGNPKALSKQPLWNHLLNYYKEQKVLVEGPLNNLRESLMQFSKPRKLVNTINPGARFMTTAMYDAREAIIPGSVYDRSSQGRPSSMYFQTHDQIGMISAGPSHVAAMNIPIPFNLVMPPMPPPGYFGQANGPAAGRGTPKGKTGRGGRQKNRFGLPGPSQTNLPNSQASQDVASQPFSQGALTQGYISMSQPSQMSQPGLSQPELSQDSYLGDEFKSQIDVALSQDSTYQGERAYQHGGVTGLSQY
# B1: staufen1 (STAU1), endogenous (natural protein, human (endogenous in HEK293T), UniProt O95793 1-577, looked up)
# chain: MSQVQVQVQNPSAALSGSQILNKNQSLLSQPLMSIPSTTSSLPSENAGRPIQNSALPSASITSTSAAAESITPTVELNALCMKLGKKPMYKPVDPYSRMQSTYNYNMRGGAYPPRYFYPFPVPPLLYQVELSVGGQQFNGKGKTRQAAKHDAAAKALRILQNEPLPERLEVNGRESEEENLNKSEISQVFEIALKRNLPVNFEVARESGPPHMKNFVTKVSVGEFVGEGEGKSKKISKKNAAIAVLEELKKLPPLPAVERVKPRIKKKTKPIVKPQTSPEYGQGINPISRLAQIQQAKKEKEPEYTLLTERGLPRRREFVMQVKVGNHTAEGTGTNKKVAKRNAAENMLEILGFKVPQAQPTKPALKSEEKTPIKKPGDGRKVTFFEPGSGDENGTSNKEDEFRMPYLSHQQLPAGILPMVPEVAQAVGVSQGHHTKDFTRAAPNPAKATVTAMIARELLYGGTSPTAETILKNNISSGHVPHGPLTRPSEQLDYLSRVQGFQVEYKDFPKNNKNEFVSLINCSSQPPLISHGIGKDVESCHDMAALNILKLLSELDQQSTEMPRTGNGPMSVCGRC
# Target: T1, FLAG-UPF1
# Assay: co-IP
binder,measurement,value
B1,"fold change of the association after IR exposure, against untreated cells",3.1 fold
